Cellular uptake of fluorescently labelled FGF1WT into U2OS-R1 cells in the presence of heparin, quantitative confocal microscopy (normalized RSI) data for one substance are collected here from PMC12121223.

In this experiment the target is extracellular region of FGFR1 fused to the Fc fragment of human IgG1 (UniProt P11362).
Chain of UniProt P11362 (P11362 22-376): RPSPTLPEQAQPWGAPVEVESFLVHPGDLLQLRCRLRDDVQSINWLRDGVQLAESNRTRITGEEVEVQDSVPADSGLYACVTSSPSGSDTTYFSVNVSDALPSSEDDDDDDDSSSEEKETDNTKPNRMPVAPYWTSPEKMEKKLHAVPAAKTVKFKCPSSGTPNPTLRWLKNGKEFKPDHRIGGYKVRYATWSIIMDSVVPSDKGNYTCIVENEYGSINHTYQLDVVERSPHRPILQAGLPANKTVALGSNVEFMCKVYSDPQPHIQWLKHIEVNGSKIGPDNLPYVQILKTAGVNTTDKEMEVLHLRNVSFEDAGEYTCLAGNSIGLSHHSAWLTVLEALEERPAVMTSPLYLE

For “truncated wild-type FGF1 (Met-Ala-FGF1 21-154) (ligand)”, the cellular uptake of fluorescently labelled FGF1WT into U2OS-R1 cells in the presence of heparin, quantitative confocal microscopy (normalized RSI) turned out to be 25.2%.
